From article PMC11141940

Molecular target: MADD with deletion of exon 30 (dex30), MAC-tagged (human) (UniProt Q8WXG6)
Assay: affinity purification with mass spectrometry + proximity labelling; AP-MS and BioID with MAC-tagged MADD (wild-type or dex30) in Flp-In T-REx 293 cells; the text does not tell which of the two approaches gave this result (Figure 7)

ubiquitin-specific peptidase 9 X-linked (from UniProt Q93008 1-2554) (natural protein)
fold change of relative abundance against wild-type MADD: 24 fold
